Results from patent publication US20130184211A1 (NEW YORK UNIVERSITY, published 2013).

Biological target: T1, 1:1 binary complex of the ectodomains of FGFR1c and Klotho (human; murine, UniProt O35082 35-982)
T1 construct: range 35-982; also called FGFR1c-Klotho complex; binary FGFR1c-Klotho complex; not shown: C-terminal FLAG tag
T1 sequence 1: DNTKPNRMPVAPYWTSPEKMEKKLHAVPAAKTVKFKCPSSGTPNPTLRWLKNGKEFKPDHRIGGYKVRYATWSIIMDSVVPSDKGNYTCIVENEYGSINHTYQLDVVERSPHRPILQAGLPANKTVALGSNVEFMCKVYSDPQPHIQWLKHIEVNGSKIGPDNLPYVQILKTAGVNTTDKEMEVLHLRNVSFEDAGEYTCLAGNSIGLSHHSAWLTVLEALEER
T1 sequence 2: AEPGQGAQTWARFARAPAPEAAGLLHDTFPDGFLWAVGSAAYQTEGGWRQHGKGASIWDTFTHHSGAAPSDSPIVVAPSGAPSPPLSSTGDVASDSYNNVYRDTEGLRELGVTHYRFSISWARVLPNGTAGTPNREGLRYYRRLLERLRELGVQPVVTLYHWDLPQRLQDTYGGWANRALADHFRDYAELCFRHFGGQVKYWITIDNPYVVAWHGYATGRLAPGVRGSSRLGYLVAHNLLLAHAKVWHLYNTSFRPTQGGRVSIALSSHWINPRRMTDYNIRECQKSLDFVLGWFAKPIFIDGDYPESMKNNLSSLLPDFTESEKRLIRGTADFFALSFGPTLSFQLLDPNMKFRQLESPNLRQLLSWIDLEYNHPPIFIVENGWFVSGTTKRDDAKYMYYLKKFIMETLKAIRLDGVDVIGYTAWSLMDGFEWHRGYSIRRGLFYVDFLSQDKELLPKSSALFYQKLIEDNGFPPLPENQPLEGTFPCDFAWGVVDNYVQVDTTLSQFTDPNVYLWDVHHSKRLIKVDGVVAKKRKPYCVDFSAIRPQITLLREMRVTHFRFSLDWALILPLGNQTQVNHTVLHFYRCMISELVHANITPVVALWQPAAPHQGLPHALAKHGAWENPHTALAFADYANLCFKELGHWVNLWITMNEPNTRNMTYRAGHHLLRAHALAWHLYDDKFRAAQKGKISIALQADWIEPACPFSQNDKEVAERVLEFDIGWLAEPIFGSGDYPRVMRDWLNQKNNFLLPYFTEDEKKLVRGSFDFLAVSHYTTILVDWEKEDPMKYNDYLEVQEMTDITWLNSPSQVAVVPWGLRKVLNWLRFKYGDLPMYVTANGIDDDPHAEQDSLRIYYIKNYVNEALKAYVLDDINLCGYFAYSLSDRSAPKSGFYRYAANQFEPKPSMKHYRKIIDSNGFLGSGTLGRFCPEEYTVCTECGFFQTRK
Assay: SPR competition; competitor FGF23^28-251 immobilized, fixed FGFR1c-Klotho complex
Protocol: Increasing concentrations of FGF23²⁸⁻²⁵¹ (0-50 nM) were mixed with a fixed concentration of 1:1 complex of the ectodomains of FGFR1c and Klotho (15 nM and 20 nM, respectively) in HBS-EP buffer, and the mixtures were passed over the FGF23 chip. In the other—reverse—assay, FGF23¹⁸⁰⁻²⁵¹ was immobilized on a chip (˜48.4 fmole/mm² of flow channel). Increasing concentrations of FGF23²⁸⁻²⁵¹ (0-50 nM) were mixed with a fixed concentration of 1:1 complex of the ectodomains of FGFR1c and Klotho (20 nM) in HBS-EP buffer, and the mixtures were passed over the chip. As a control, competition of FGF23 C-terminal tail peptide in solution with immobilized FGF23 C-terminal tail peptide for binding to the binary FGFR1c-Klotho complex was studied. Increasing concentrations of FGF23¹⁸⁰⁻²⁵¹ (0-400 nM) were mixed with a fixed concentration of 1:1 complex of the ectodomains of FGFR1c and Klotho (20 nM) in HBS-EP buffer, and the mixtures were passed over the FGF23¹⁸⁰⁻²⁵¹ chip.
To fully nail down that the C-terminal tail of FGF23 mediates FGF23 binding to the binary FGFR1c-Klotho complex, a fixed concentration of FGFR1c-Klotho was mixed with increasing concentrations of FGF23¹⁸⁰⁻²⁵¹, and the mixtures were passed over the FGF23 chip. Mixtures of FGF23²⁸⁻²⁵¹ with FGFR1c-Klotho were used as a control. […] Similar results were obtained using the “reverse” SPR assay format, where FGF23¹⁸⁰⁻²⁵¹ was immobilized on a chip and mixtures of a fixed concentration of FGFR1c-Klotho complex with increasing concentrations of FGF23²⁸⁻²⁵¹ were passed over the chip (FIG. 3E). Mixtures of FGF23¹⁸⁰⁻²⁵¹ with FGFR1c-Klotho were used as a control (FIG. 3F). To verify the specificity of the interaction between the FGF23 C-terminal tail and the FGFR1c-Klotho complex, the C-terminal tail peptide of FGF21 and FGFR1c-Klotho were mixed at molar ratios of 6:1 and 10:1, and the mixtures were injected over a FGF23 chip.

B1: FGF23 C-terminal region peptide (S180 to S205), FGF23^180-205 (peptide)
peptide: SAEDDSERDPLNVLKPRARMTPAPAS
notes: Made by solid phase synthesis (GenScript)
molar excess over FGFR1c-Klotho complex at half-maximum inhibition: 5.7 fold molar excess

B2: N-terminally hexahistidine-tagged 72-amino acid C-terminal tail of human FGF23 (S180 to I251), FGF23^180-251 (peptide)
peptide: SAEDDSERDPLNVLKPRARMTPAPASCSQELPSAEDNSPMASDPLGVVRGGRVNTHAGGTGPEGCRPFAKFI
notes: Expressed in E. coli; also called FGF23 C-terminal tail peptide; C-terminal tail of FGF23; not shown: N-terminal hexahistidine tag (six His)
molar excess over FGFR1c-Klotho complex at half-maximum inhibition: 3.3 fold molar excess
